Where two headings read alike, the source gives them in different places.
Assays:
GPCR142 [1] = molecular target: T1, GPCR142 (Homo sapiens, UniProt Q8TDU9, L329S); experiment: GTPγS binding assay, GPCR142 expressing cell membranes; assay type: biochemical; parameters: The complete coding region of human GPCR142 was PCR-amplified from human genomic DNA; expressed in transfected cells; CHO membranes (GTPγS); HEK293 co-transfected with Gα16 (Ca2+)
Procedure: The GPCR142 expression vector described above was transfected into CHO cells using Lipofectamine (Invitrogen) according to the manufacturer's instructions. Two days after transfection, the cells were harvested and the cell membranes were prepared by homogenizing the cells in cold 50 mM Tris-HCl, 5 mM EDTA, pH 7.5 followed by centrifugation at 4° C. 1000 g for 10 min. The supernatant was centrifuged at 4° C. 20,000 g for 30 min and the pellet was re-suspended in GTPγS binding buffer: 50 mM Tris-HCl, pH 7.4, 10 mM MgCl2, 1 mM EDTA, pH 8.0, and 100 mM NaCl using a polytron tissue homogenizer. Protease inhibitors were added to the buffer at concentrations of 1 mM PMSF, 10 μg/ml of pepstatin A, 10 μg/ml of leupeptin. Cell membranes and different concentrations of ligands were added to 96-well plates and incubated at room temperature for 20 min. ^35S-GTPγS (NEN) was then added to each well at a final concentration of […] in a final volume of 200 μL. The reactions were allowed to proceed at room temperature for 1 h, and then the mixtures were filtered though a 96-well GFC filter plate (Packard) and washed with cold washing buffer: 50 mM Tris-HCl, pH 7.4, 10 mM MgCl2. Fifty microliters of Microscint-40 (Packard) was added to each well and the plate was counted on a top counter (TopCount NTX, Packard).

GPCR135 = molecular target: T2, GPCR135 (Homo sapiens, UniProt Q9NSD7); experiment: Inhibition of forskolin-stimulated cAMP (CRE-β-galactosidase) in SK-N-MC cells; assay type: cell-based; parameters: expressed in transfected cells; settings: SK-N-MC cells stably expressing GPCR135
T2 sequence (Q9NSD7 1-469): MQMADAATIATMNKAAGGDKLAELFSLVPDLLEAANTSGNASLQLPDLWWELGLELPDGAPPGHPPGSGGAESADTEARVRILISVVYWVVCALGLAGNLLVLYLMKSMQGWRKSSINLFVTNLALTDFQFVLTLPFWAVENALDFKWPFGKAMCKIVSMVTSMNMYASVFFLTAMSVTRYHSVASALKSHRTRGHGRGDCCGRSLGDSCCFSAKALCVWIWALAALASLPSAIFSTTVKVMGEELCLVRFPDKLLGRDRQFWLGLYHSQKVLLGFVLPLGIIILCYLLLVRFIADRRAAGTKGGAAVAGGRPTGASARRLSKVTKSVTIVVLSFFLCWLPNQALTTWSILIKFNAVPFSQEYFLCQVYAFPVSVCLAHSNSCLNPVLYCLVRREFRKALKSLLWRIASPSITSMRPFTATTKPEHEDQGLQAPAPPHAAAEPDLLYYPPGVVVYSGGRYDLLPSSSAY
Procedure: SK-N-MC cells stably expressing GPCR142 were established by transfection of GPCR142 expressing plasmids into SK-N-MC cells harboring a β-galactosidase gene under control of multiple cAMP responsive elements. The stable transfectants were selected by culturing the transfected cells under G418 selection (400 mg/L). The receptor expressing cells were seeded in 96-well plates at a cell density of 30,000 cells/well. After 24 h, cells were stimulated with forskolin or different peptides. Cells were cultured for an additional 6 h and the intracellular β-gal activity, which represents the intracellular cAMP accumulation, was measured as described by Liu et al. (2000), Mol. Pharmacol., 59, 420-426.
The same experiment was performed using GPCR135.

GPCR142 [2] = molecular target: T1, GPCR142; experiment: Ca2+ mobilization assay, 293 cells co-expressing GPCR142 and Gqi5; assay type: cell-based; parameters: The complete coding region of human GPCR142 was PCR-amplified from human genomic DNA; expressed in transfected cells; HEK293 co-transfected with Gqi5 (Ca2+)
Procedure: (§1) Human embryonic kidney (HEK) 293 cells were transfected with GPCR135,.GPCR142 or co-transfected with Gqi5 (Conklin et al. (1993), Nature 363, 274-280) or Gα16 (Amatruda et al. (1991), Proc. Natl. Acad. Sci. U.S.A. 88, 5587-5591) expressing plasmids using LipofectAmine. Two days after transfection, cells were detached with PBS plus 10 mM EDTA. The detached cells were washed with DMEM-F12 medium (without phenol red, Invitrogen) and seeded in black poly-D lysine coated 96-well plates (BD Biosciences, San Jose, Calif.) at a cell density of 50,000 cell/well.

mouse GPCR142 = molecular target: T3, mouse GPCR142 (Mus musculus, UniProt Q7TQP4); experiment: Ca2+ mobilization assay, mouse GPCR142 and Gα16; assay type: cell-based; settings: cells expressing mouse GPCR142 and Gα16
T3 construct: The complete coding region of the mouse GPCR142 was deposited in GenBank; expressed in transfected cells; CHO membranes (GTPγS, by the general protocol); HEK293 with Gα16 (Ca2+)
T3 sequence (Q7TQP4 1-414): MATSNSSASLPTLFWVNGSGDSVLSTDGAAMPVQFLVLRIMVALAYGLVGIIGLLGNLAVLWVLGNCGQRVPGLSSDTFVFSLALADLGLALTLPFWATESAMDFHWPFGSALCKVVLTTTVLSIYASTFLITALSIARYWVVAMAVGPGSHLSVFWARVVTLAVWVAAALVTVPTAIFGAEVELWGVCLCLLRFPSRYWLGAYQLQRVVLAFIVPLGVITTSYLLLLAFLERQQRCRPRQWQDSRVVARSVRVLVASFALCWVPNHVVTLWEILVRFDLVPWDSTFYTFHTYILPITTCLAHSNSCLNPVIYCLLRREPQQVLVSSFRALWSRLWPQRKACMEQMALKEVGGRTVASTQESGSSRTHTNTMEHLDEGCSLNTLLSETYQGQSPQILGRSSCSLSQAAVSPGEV
Procedure: as §1

T1 sequence (Q8TDU9 whole entry L329S): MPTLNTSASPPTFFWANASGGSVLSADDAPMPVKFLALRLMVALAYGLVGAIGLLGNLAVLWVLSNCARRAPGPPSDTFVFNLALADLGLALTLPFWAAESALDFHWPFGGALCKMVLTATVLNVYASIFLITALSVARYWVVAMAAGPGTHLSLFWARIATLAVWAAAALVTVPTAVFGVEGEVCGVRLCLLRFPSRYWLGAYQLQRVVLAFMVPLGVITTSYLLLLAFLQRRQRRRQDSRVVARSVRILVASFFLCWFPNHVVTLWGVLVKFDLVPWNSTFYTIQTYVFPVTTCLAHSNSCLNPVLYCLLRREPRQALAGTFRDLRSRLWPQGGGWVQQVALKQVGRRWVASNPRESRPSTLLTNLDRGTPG

## relaxin3: Human relaxin3 (SEQ ID NO: 6), produced recombinantly; mature peptide of A- and B-chain linked by disulfide bridges
GPCR142 [1]
  stimulation of 35S-GTPγS binding (agonist activity): stimulate
GPCR142 [1]; listed as human recombinant relaxin3
  stimulation of 35S-GTPγS binding (agonist activity): stimulated GTPγS binding
GPCR135
  inhibition of forskolin induced β-galactosidase expression: dose-dependently inhibits
GPCR142 [2]
  stimulation of Ca2+ signaling: No relaxin3-stimulated Ca^2+ signaling was observed
GPCR142 [2]; listed as Relaxin3
  stimulation of Ca2+ signaling: does not stimulate any detectable Ca^2+ signal
Mouse GPCR142
  Ca2+ response: did not stimulate detectable Ca^2+ response

— patent publication US20050059089A1 (priority 2003, published 2005)
